Experimental data as given in the supplement of paper PMC10567573.
± gives the standard deviation.

Assay: protein stability index of a GFP-peptide fusion (GPS, HEK-293T) (PSI 1-6); higher = more stable
Details: c terminus: a fixed tail appended
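Also: 24-mer peptide tiles fused after GFP, lentivirally expressed, FACS-sorted into six equal bins by GFP/DsRed ratio, decoded by Illumina sequencing, PSI is the read-weighted mean bin number.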

Sequence | protein stability index (treatment: DMSO) | protein stability index (treatment: MLN4924 1 uM, 8 h)
VMLGAGGVGKSAMTMQFISHRFPE [RIT1] | 2.33 ± 0.34 | 2.12 ± 0.34
QKRSRAIHSSDEGEDQAGDEDEDD [WAS] | 5.69 ± 0.21 | 5.57 ± 0.24
SLIPLILDLMKEWIAHSEKLPRKV [SPACA9] | 2.28 ± 0.46 | 2.02 ± 0.36
EDEDPEEMPKSSDFLIHPPERSDL [PCDHGC5] | 5.41 ± 0.13 | 5.4 ± 0.24
DMAGDWHWALRVTPGLGVVAVLLL [SPNS1] | 2.82 ± 0.41 | 2.5 ± 0.48
RMDKRTLALLVLAHSSDVLENVFS [GOLPH3L] | 2.37 ± 0.53 | 2.22 ± 0.23
QRIKSQERETEATRGRGGLLRDHI [MOG] | 4.59 ± 0.18 | 4.78 ± 0.11
DSFTTNKEHAVTMPCTWVMACAYA [GNB5] | 2.73 ± 0.79 | 2.53 ± 0.58
EPEKLYAMPDPAGPDGHLPAVATL [ESRRA] | 4.65 ± 0.27 | 4.69 ± 0.23
RRFQQTQYLALPERAELAASLGLT [DLX1] | 2.95 ± 0.21 | 3.12 ± 0.099
YILECDHHGGDYKHWREWGSHAQT [CRYBA1] | 2.32 ± 0.15 | 2.43 ± 0.51
GLHLTDPSQRLVQNCLWTLRNLSD [CTNNB1] | 2.29 ± 0.31 | 2.45 ± 0.27
QTLKAMVQAWPFTCLPLGVLMKGQ [PRAME] | 2.65 ± 0.85 | 3.03 ± 0.38
NLGPKSKVLILRNHGLVSVGESVE [ADD1] | 2.69 ± 0.23 | 3.05 ± 0.38
EGGGGGSYFSGQGSDTGASLKLAS [JUNB] | 4.67 ± 0.12 | 4.72 ± 0.12
GGKKDKARYIDTHNRVSKEDEDIY [PLK2] | 4.37 ± 0.27 | 4.73 ± 0.4
GTTPQISPSTLIGSLRTLELGSES [HDAC6] | 4.52 ± 0.27 | 
VTLALLGSYTVQSELGDYDPDECG [EPB41L3] | 2.46 ± 0.4 | 2.62 ± 0.27

Sequence | protein stability index (treatment: DMSO) | protein stability index (treatment: MLN4924 1 uM, 8 h)
EVASNTEMIQTSKTEITDLRRTMQ [KRT15] | 3.89 ± 0.21 | 4.27 ± 0.32
LDEFARENIDSLYNVNLSKGRAAL [SCNN1D] | 3.82 ± 0.17 | 3.85 ± 0.31
FEYPESSGPARVIAIVSVMVILIS [KCNA1] | 2.82 ± 0.47 | 2.87 ± 0.48
KPYKCTLCGENFSHRSNLIRHQRI [ZNF263] | 2.74 ± 0.51 | 3.43 ± 0.39
SRGSSVSMSGGRFRCPTCRHEVIM [TRIM63] | 2.43 ± 0.56 | 2.4 ± 0.38
LRLEEPRMDFAAKLMKNIRFPLMT [KLHL13] | 2.31 ± 0.29 | 2.43 ± 0.37
LPKLYLPTGPRRGRDELGGGRRPG [CDKN1A] | 4.05 ± 0.63 | 4.35 ± 0.38
ELRGAEPGRPARLDQLLDMPAAGL [SPSB4] | 3.84 ± 0.46 | 4.02 ± 0.5
FNGDFVDRGKDSVEILMILFAFML [PPEF2] | 2.62 ± 0.54 | 2.15 ± 0.27
AARSGDAAANKLFHYIPGTDILDL [PLEKHN1] | 3.51 ± 0.39 | 3.35 ± 0.14
RPSSPRPQKASPNGSISSAGNSSR [BTBD10] | 4.97 ± 0.21 | 4.94 ± 0.3
KLLNITADPMDWSPSNVQKWLLWT [SPDEF] | 2.34 ± 0.46 | 2.22 ± 0.21
TWKQELLKLMDRHKKDCAREKPFK [ZNF75A] | 2.69 ± 0.25 | 2.88 ± 0.3
VLAAKERRCGELKRKLGLTALVGL [TPD52L3] | 2.44 ± 0.24 | 2.07 ± 0.23
TEQAVALLRDRTGQQSDTAQLELY [SCARA5] | 4.61 ± 0.16 | 4.42 ± 0.25
ATIENAQPILQIDNARLAADDFRT [KRT16] | 4.41 ± 0.17 | 4.52 ± 0.16
RICLGKFTFPGMSLDKRQGEGLRI [TPRG1] | 2.12 ± 0.19 | 2.08 ± 0.32
TASSLVKINLQGDIVDRGSTNLGV [ADD1] | 3.36 ± 0.68 | 3.36 ± 0.25
